{"source": "patent US20180155451A1", "about": "(published 2018)", "binders": {"B1": {"name": "GpH7-B3 variant L234_07I/GpL16-k0 (antibody, human IgG1, kappa)", "heavy": "not shown", "light": "DIVMTQSPLSLPVTPGEPASISCQASESLVHSNRNTYLHWYLQKPGQSPQLLIYKVSNRFSGVPDRFSGSGSGTDFTLKISRVEAEDVGVYYCSQNTHVPPTFGQGTKVEIERTVAAPSVFIFPPSDEQLKSGTASVVCLLNNFYPREAKVQWKVDNALQSGNSQESVTEQDSKDSTYSLSSTLTLSKADYEKHKVYACEVTHQGLSSPVTKSFNRGEC", "notes": "homodimerized; also called Ho Ab L234_07I"}, "B2": {"name": "GpH7-B3 variant L234_10E/GpL16-k0 (antibody, human IgG1, kappa)", "heavy": "not shown", "light": "B1 light", "notes": "homodimerized; also called Ho Ab L234_10E; GpH7-B16/GpL16-k0"}, "B3": {"name": "GpH7-B3 variant L234_15Y/GpL16-k0 (antibody, human IgG1, kappa)", "heavy": "not shown", "light": "B1 light", "notes": "homodimerized; also called Ho Ab L234_15Y; GpH7-B3-01-15Y/GpL16-k0"}, "B4": {"name": "GpH7-B3 variant L328_03V/GpL16-k0 (antibody, human IgG1, kappa)", "heavy": "not shown", "light": "B1 light", "notes": "homodimerized; also called Ho Ab L328_03V"}, "B5": {"name": "GpH7-B3 variant L328_10E/GpL16-k0 (antibody, human IgG1, kappa)", "heavy": "not shown", "light": "B1 light", "notes": "homodimerized; also called Ho Ab L328_10E"}, "B6": {"name": "GpH7-B3 variant L328_14T/GpL16-k0 (antibody, human IgG1, kappa)", "heavy": "not shown", "light": "B1 light", "notes": "homodimerized; also called Ho Ab L328_14T"}, "B7": {"name": "GpH7-B3 variant L328_19Q/GpL16-k0 (antibody, human IgG1, kappa)", "heavy": "not shown", "light": "B1 light", "notes": "homodimerized; also called Ho Ab L328_19Q"}, "B8": {"name": "GpH7-B3 variant L328_20W/GpL16-k0 (antibody, human IgG1, kappa)", "heavy": "not shown", "light": "B1 light", "notes": "homodimerized; also called Ho Ab L328_20W"}, "B9": {"name": "GpH7-B3 variant P238_03V/GpL16-k0 (antibody, human IgG1, kappa)", "heavy": "not shown", "light": "B1 light", "notes": "homodimerized; also called Ho Ab P238_03V"}, "B10": {"name": "GpH7-B3 variant P238_04F/GpL16-k0 (antibody, human IgG1, kappa)", "heavy": "not shown", "light": "B1 light", "notes": "homodimerized; also called Ho Ab P238_04F"}, "B11": {"name": "GpH7-B3 variant P238_06M/GpL16-k0 (antibody, human IgG1, kappa)", "heavy": "not shown", "light": "B1 light", "notes": "homodimerized; also called Ho Ab P238_06M"}, "B12": {"name": "GpH7-B3 variant P238_08L/GpL16-k0 (antibody, human IgG1, kappa)", "heavy": "not shown", "light": "B1 light", "notes": "homodimerized; also called Ho Ab P238_08L"}, "B13": {"name": "GpH7-B3 variant P238_10E/GpL16-k0 (antibody, human IgG1, kappa)", "heavy": "not shown", "light": "B1 light", "notes": "homodimerized; also called Ho Ab P238_10E"}, "B14": {"name": "GpH7-B3 variant P238_15Y/GpL16-k0 (antibody, human IgG1, kappa)", "heavy": "not shown", "light": "B1 light", "notes": "homodimerized; also called Ho Ab P238_15Y"}, "B15": {"name": "GpH7-B3 variant P271_02A/GpL16-k0 (antibody, human IgG1, kappa)", "heavy": "not shown", "light": "B1 light", "notes": "homodimerized; also called Ho Ab P271_02A"}, "B16": {"name": "GpH7-B3 variant P271_03V/GpL16-k0 (antibody, human IgG1, kappa)", "heavy": "not shown", "light": "B1 light", "notes": "homodimerized; also called Ho Ab P271_03V"}, "B17": {"name": "GpH7-B3 variant P271_04F/GpL16-k0 (antibody, human IgG1, kappa)", "heavy": "not shown", "light": "B1 light", "notes": "homodimerized; also called Ho Ab P271_04F"}, "B18": {"name": "GpH7-B3 variant P271_06M/GpL16-k0 (antibody, human IgG1, kappa)", "heavy": "not shown", "light": "B1 light", "notes": "homodimerized; also called Ho Ab P271_06M"}, "B19": {"name": "GpH7-B3 variant P271_07I/GpL16-k0 (antibody, human IgG1, kappa)", "heavy": "not shown", "light": "B1 light", "notes": "homodimerized; also called Ho Ab P271_07I"}, "B20": {"name": "GpH7-B3 variant P271_11K/GpL16-k0 (antibody, human IgG1, kappa)", "heavy": "not shown", "light": "B1 light", "notes": "homodimerized; also called Ho Ab P271_11K"}, "B21": {"name": "GpH7-B3 variant P271_12R/GpL16-k0 (antibody, human IgG1, kappa)", "heavy": "not shown", "light": "B1 light", "notes": "homodimerized; also called Ho Ab P271_12R"}, "B22": {"name": "GpH7-B3 variant P271_13S/GpL16-k0 (antibody, human IgG1, kappa)", "heavy": "not shown", "light": "B1 light", "notes": "homodimerized; also called Ho Ab P271_13S"}, "B23": {"name": "GpH7-B3 variant P271_20W/GpL16-k0 (antibody, human IgG1, kappa)", "heavy": "not shown", "light": "B1 light", "notes": "homodimerized; also called Ho Ab P271_20W"}, "B24": {"name": "GpH7-B3 variant Q295_02A/GpL16-k0 (antibody, human IgG1, kappa)", "heavy": "not shown", "light": "B1 light", "notes": "homodimerized; also called Ho Ab Q295_02A"}, "B25": {"name": "GpH7-A5/GpH7-B3 variant E269_04F/GpL16-k0 (antibody, human IgG1, kappa)", "heavy 1": "not shown", "heavy 2": "not shown", "light": "B1 light", "notes": "heterodimerized; also called He Ab E269_04F"}, "B26": {"name": "GpH7-A5/GpH7-B3 variant A327_03V/GpL16-k0 (antibody, human IgG1, kappa)", "heavy 1": "not shown", "heavy 2": "not shown", "light": "B1 light", "notes": "heterodimerized; also called He Ab A327_03V"}, "B27": {"name": "GpH7-A5/GpH7-B3 variant A327_06M/GpL16-k0 (antibody, human IgG1, kappa)", "heavy 1": "not shown", "heavy 2": "not shown", "light": "B1 light", "notes": "heterodimerized; also called He Ab A327_06M"}, "B28": {"name": "GpH7-A5/GpH7-B3 variant A327_07I/GpL16-k0 (antibody, human IgG1, kappa)", "heavy 1": "not shown", "heavy 2": "not shown", "light": "B1 light", "notes": "heterodimerized; also called He Ab A327_07I"}, "B29": {"name": "GpH7-A5/GpH7-B3 variant A327_09D/GpL16-k0 (antibody, human IgG1, kappa)", "heavy 1": "not shown", "heavy 2": "not shown", "light": "B1 light", "notes": "heterodimerized; also called He Ab A327_09D"}, "B30": {"name": "GpH7-A5/GpH7-B3 variant A327_10E/GpL16-k0 (antibody, human IgG1, kappa)", "heavy 1": "not shown", "heavy 2": "not shown", "light": "B1 light", "notes": "heterodimerized; also called He Ab A327_10E"}}, "data": [{"target": "T1, FcγRIa (human, UniProt P12314 16-292)", "T1 construct": "extracellular domain; also called FcgRI; CD64", "T1 sequence (P12314 16-292)": "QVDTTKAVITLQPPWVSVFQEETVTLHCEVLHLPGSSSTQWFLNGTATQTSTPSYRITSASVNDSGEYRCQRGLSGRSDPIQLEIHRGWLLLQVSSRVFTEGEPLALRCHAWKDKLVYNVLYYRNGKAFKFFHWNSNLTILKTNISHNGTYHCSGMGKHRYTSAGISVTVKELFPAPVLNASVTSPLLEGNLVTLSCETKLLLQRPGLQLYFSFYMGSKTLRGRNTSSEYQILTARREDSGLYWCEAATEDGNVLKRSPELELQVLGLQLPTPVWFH", "assay": "SPR; vs GpH7-B3/GpL16-k0=100", "values": [{"binder": "B1", "Ho/Con_1a": "99.5 % of control"}, {"binder": "B2", "Ho/Con_1a": "79.6 % of control"}, {"binder": "B3", "Ho/Con_1a": "98.9 % of control"}, {"binder": "B4", "Ho/Con_1a": "99.2 % of control"}, {"binder": "B5", "Ho/Con_1a": "101 % of control"}, {"binder": "B6", "Ho/Con_1a": "98.6 % of control"}, {"binder": "B7", "Ho/Con_1a": "99.3 % of control"}, {"binder": "B8", "Ho/Con_1a": "99.9 % of control"}, {"binder": "B9", "Ho/Con_1a": "97.9 % of control"}, {"binder": "B10", "Ho/Con_1a": "98.7 % of control"}, {"binder": "B11", "Ho/Con_1a": "100 % of control"}, {"binder": "B12", "Ho/Con_1a": "100 % of control"}, {"binder": "B13", "Ho/Con_1a": "91.8 % of control"}, {"binder": "B14", "Ho/Con_1a": "99 % of control"}, {"binder": "B15", "Ho/Con_1a": "102 % of control"}, {"binder": "B16", "Ho/Con_1a": "102 % of control"}, {"binder": "B17", "Ho/Con_1a": "100 % of control"}, {"binder": "B18", "Ho/Con_1a": "102 % of control"}, {"binder": "B19", "Ho/Con_1a": "102 % of control"}, {"binder": "B20", "Ho/Con_1a": "101 % of control"}, {"binder": "B21", "Ho/Con_1a": "101 % of control"}, {"binder": "B22", "Ho/Con_1a": "101 % of control"}, {"binder": "B23", "Ho/Con_1a": "102 % of control"}, {"binder": "B24", "Ho/Con_1a": "104 % of control"}]}, {"target": "T1, FcγRIa", "assay": "SPR; vs GpH7-A5/GpH7-B3/GpL16-k0=100", "values": [{"binder": "B25", "He/Con_1a": "103 % of control"}, {"binder": "B26", "He/Con_1a": "103 % of control"}, {"binder": "B27", "He/Con_1a": "103 % of control"}, {"binder": "B28", "He/Con_1a": "104 % of control"}, {"binder": "B29", "He/Con_1a": "103 % of control"}, {"binder": "B30", "He/Con_1a": "103 % of control"}]}]}
